The data set has as its target T1, PUF4 RNA-binding domain (Saccharomyces cerevisiae, UniProt P25339 537-888).
T1 sequence: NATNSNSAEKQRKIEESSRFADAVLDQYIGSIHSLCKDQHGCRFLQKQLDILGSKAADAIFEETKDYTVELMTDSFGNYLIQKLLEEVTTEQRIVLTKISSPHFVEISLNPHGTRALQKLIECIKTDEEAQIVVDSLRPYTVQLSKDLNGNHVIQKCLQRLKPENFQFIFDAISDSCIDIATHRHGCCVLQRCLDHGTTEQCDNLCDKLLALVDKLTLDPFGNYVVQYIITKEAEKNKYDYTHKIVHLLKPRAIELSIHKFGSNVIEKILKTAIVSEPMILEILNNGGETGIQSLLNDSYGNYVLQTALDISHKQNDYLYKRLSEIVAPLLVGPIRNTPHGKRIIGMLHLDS
Briefly: Mg; RNA-MaP; 20 mM Na-HEPES pH 7.4, 30 mM KOAc, 0.75 mM MgCl2, 0.1% Tween-20, 5% glycerol, 0.1 mg/mL BSA, 2 mM DTT; 25 C; 0.0125-409.6 nM protein. Conditions: tags: N-His6-TEV cleaved; C-SNAP kept, Cy3B-labelled; label: tethered on chip by stalled RNA polymerase.

One may read the Kd as the equilibrium constant for the complex coming apart. Low values mean a tighter complex, high ones a looser complex.

For the molecule ACAAACGCACACUUAUUAUAACAAAC (ssRNA) [Id_ii_S3_P5E.4_K5.3_C5.2_[C-2G]_[T-1C]_H5.3_A5.1_F5.1_T5.2], the dissociation constant Kd is more than 2.3 µM. The figure for ACAAACGGACACUUAUUAAGACAAAC (ssRNA) [Id_ii_S3_P5E.4_K5.3_C5.2_[C-2G]_[T-1G]_H5.3_A5.1_F5.1_T5.2_[T11A]_[A12G]] is more than 2.3 µM; for UCUCUUCGUGUUAUUAUCUCUU (ssRNA) [Ib_S1_P5E.1_K5.1_C5.1_H5.1_[T1C]_[A4G]_A5.1_F5.1_T5.1] it is 2.3 µM. Take UCUCUUUCUUUUAUUAUCUCUU (ssRNA) [Ib_S1_P5E.1_K5.1_C5.1_H5.1_[G2C]_[A4T]_A5.1_F5.1_T5.1]: the dissociation constant Kd is more than 2.3 µM. The result for ACAAACUGACACUUAUUACGACAAAC (ssRNA) [Id_ii_S3_P5E.4_K5.3_C5.2_[C-2T]_[T-1G]_H5.3_A5.1_F5.1_T5.2_[T11C]_[A12G]] reads more than 2.3 µM; that for ACAAACGCACACUUAUUAAAACAAAC (ssRNA) [Id_ii_S3_P5E.4_K5.3_C5.2_[C-2G]_[T-1C]_H5.3_A5.1_F5.1_T5.2_[T11A]], more than 2.3 µM; that for ACAAACGAACACUUAUUAUCACAAAC (ssRNA) [Id_ii_S3_P5E.4_K5.3_C5.2_[C-2G]_[T-1A]_H5.3_A5.1_F5.1_T5.2_[A12C]], more than 2.3 µM. The result for ACAAACUGACACUUAUUAAGACAAAC (ssRNA) [Id_ii_S3_P5E.4_K5.3_C5.2_[C-2T]_[T-1G]_H5.3_A5.1_F5.1_T5.2_[T11A]_[A12G]] reads more than 2.3 µM. The figure for ACAAACAAACACUUAUUAGGACAAAC (ssRNA) [Id_ii_S3_P5E.4_K5.3_C5.2_[C-2A]_[T-1A]_H5.3_A5.1_F5.1_T5.2_[T11G]_[A12G]] is more than 2.3 µM; for ACAAACUCACACUUAUUAAUACAAAC (ssRNA) [Id_ii_S3_P5E.4_K5.3_C5.2_[C-2T]_[T-1C]_H5.3_A5.1_F5.1_T5.2_[T11A]_[A12T]] it is more than 2.3 µM.

Turning to ACAAACCAUAUAUUAUUACUACAAAC (ssRNA) [Id_ii_S3_P5E.3_K5.2_C5.2_[T-1A]_H5.2_A5.1_F5.1_T5.2_[T11C]_[A12T]], the affinity, expressed as Kd, was 0.168 µM. Consider ACAAACAGACACUUAUUACAACAAAC (ssRNA) [Id_ii_S3_P5E.4_K5.3_C5.2_[C-2A]_[T-1G]_H5.3_A5.1_F5.1_T5.2_[T11C]], for which the equilibrium dissociation constant (Kd) is more than 2.3 µM.

With ACAAACGGACACUUAUUAGCACAAAC (ssRNA) [Id_ii_S3_P5E.4_K5.3_C5.2_[C-2G]_[T-1G]_H5.3_A5.1_F5.1_T5.2_[T11G]_[A12C]], the Kd is more than 2.3 µM. Take ACAAACUCACACUUAUUAUGACAAAC (ssRNA) [Id_ii_S3_P5E.4_K5.3_C5.2_[C-2T]_[T-1C]_H5.3_A5.1_F5.1_T5.2_[A12G]]: the Kd is more than 2.3 µM. The figure for ACAAACGGACACUUAUUACAACAAAC (ssRNA) [Id_ii_S3_P5E.4_K5.3_C5.2_[C-2G]_[T-1G]_H5.3_A5.1_F5.1_T5.2_[T11C]] is more than 2.3 µM; for ACAAACACACACUUAUUACUACAAAC (ssRNA) [Id_ii_S3_P5E.4_K5.3_C5.2_[C-2A]_[T-1C]_H5.3_A5.1_F5.1_T5.2_[T11C]_[A12T]] it is more than 2.3 µM; for ACAAACGCACACUUAUUAAGACAAAC (ssRNA) [Id_ii_S3_P5E.4_K5.3_C5.2_[C-2G]_[T-1C]_H5.3_A5.1_F5.1_T5.2_[T11A]_[A12G]] it is more than 2.3 µM.

Molecule ACAAACCUUAUAUUAUUAUUACAAAC (ssRNA) [Id_ii_S3_P5E.3_K5.2_C5.2_H5.2_A5.1_F5.1_T5.2_[A12T]] displayed a Kd of 0.208 µM. The result for ACAAACAGACACUUAUUAGAACAAAC (ssRNA) [Id_ii_S3_P5E.4_K5.3_C5.2_[C-2A]_[T-1G]_H5.3_A5.1_F5.1_T5.2_[T11G]] reads more than 2.3 µM. As for ACAAACCAUAUAUUAUUAAUACAAAC (ssRNA) [Id_ii_S3_P5E.3_K5.2_C5.2_[T-1A]_H5.2_A5.1_F5.1_T5.2_[T11A]_[A12T]], the Kd stood at 0.157 µM. The figure for ACAAACCAUAUAUUAUUACAACAAAC (ssRNA) [Id_ii_S3_P5E.3_K5.2_C5.2_[T-1A]_H5.2_A5.1_F5.1_T5.2_[T11C]] is 0.24 µM; for ACAAACCUUAUAUUAUUAGCACAAAC (ssRNA) [Id_ii_S3_P5E.3_K5.2_C5.2_H5.2_A5.1_F5.1_T5.2_[T11G]_[A12C]] it is 0.0593 µM. The result for ACAAACAAACACUUAUUAAAACAAAC (ssRNA) [Id_ii_S3_P5E.4_K5.3_C5.2_[C-2A]_[T-1A]_H5.3_A5.1_F5.1_T5.2_[T11A]] reads more than 2.3 µM. The figure for ACAAACCUUAUAUUAUUAGAACAAAC (ssRNA) [Id_ii_S3_P5E.3_K5.2_C5.2_H5.2_A5.1_F5.1_T5.2_[T11G]] is 0.107 µM. Take ACAAACAGACACUUAUUACCACAAAC (ssRNA) [Id_ii_S3_P5E.4_K5.3_C5.2_[C-2A]_[T-1G]_H5.3_A5.1_F5.1_T5.2_[T11C]_[A12C]]: the Kd is more than 2.3 µM. The figure for UCUCUUUCUGUUAUUAUCUCUU (ssRNA) [Ib_S1_P5E.1_K5.1_C5.1_H5.1_[G2C]_[A4G]_A5.1_F5.1_T5.1] is more than 2.3 µM. Molecule ACAAACGUACACUUAUUAUCACAAAC (ssRNA) [Id_ii_S3_P5E.4_K5.3_C5.2_[C-2G]_H5.3_A5.1_F5.1_T5.2_[A12C]] returned a Kd of 1.19 µM. The figure for ACAAACUCACACUUAUUACAACAAAC (ssRNA) [Id_ii_S3_P5E.4_K5.3_C5.2_[C-2T]_[T-1C]_H5.3_A5.1_F5.1_T5.2_[T11C]] is more than 2.3 µM; for ACAAACGUACACUUAUUAAUACAAAC (ssRNA) [Id_ii_S3_P5E.4_K5.3_C5.2_[C-2G]_H5.3_A5.1_F5.1_T5.2_[T11A]_[A12T]] it is 0.707 µM.

These data come from publication PMC9352680, “A comprehensive thermodynamic model for RNA binding by the Saccharomyces cerevisiae Pumilio protein PUF4”.
